Patent US20240376151A1, “STAPLED PEPTIDES AND METHODS THEREOF” (FOG PHARMACEUTICALS, INC., priority 2022, published 2024)

Target: T1, RNF31 UBA domain (Homo sapiens, UniProt Q96EP0)
T1 construct: RNF31 UBA domain protein (residues 480-639) with N-terminal Thioredoxin-TEV-6×his-yBBr-3C tags; Thioredoxin (N, cleaved yes); made in house; host or cells: E. coli BL21 (DE3) pLysS
T1 sequence (Q96EP0 480-639): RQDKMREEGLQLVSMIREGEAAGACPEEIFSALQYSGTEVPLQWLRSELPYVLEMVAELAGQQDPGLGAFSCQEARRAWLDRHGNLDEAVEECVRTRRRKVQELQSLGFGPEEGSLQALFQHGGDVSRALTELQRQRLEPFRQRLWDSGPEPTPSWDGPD
Assay: Phage Library Screening with NGS, RNF31 UBA domain
Assay type: binding
Details: for phage screen NGS read-out at Target Concentration 10 / phage screen NGS read-out at Target Concentration 30 / phage screen NGS read-out at Target Concentration 100 / phage screen NGS read-out at Target Concentration 300: no competitor; for Phage library screen NGS readout, Target Concentration 10 / Phage library screen NGS readout, Target Concentration 30 / Phage library screen NGS readout, Target Concentration 100 / Phage library screen NGS readout, Target Concentration 300 / Phage library screen NGS readout, Target Concentration 1000: RNF31 UBA domain cluster C46; for Phage library screen NGS readout, BLANK: cluster C46

[1] = target concentration 1000, first column
[2] = target concentration 1000, second column

phage screen NGS read-out at Target Concentration 10	phage screen NGS read-out at Target Concentration 30	phage screen NGS read-out at Target Concentration 100	phage screen NGS read-out at Target Concentration 300	Sequence	other results
0	0	0	3	DPAFFTCVYAAVTCEMT	
0	0	1	4	DPAFSACVYAAYMCNQD	
1	2	3	9	DPAFSECVYAAFSCSWI	
0	0	0	7	DPAFSECVYAAIYCVHS	
2	0	1	1	DPAFSECVYAATMCLNH	
0	0	8	20	DPAFSLCVYAALFCEQQ	
0	0	0	1	DPAFSLCVYAAVECDHA	
0	0	0	4	DPAFSMCVYAAVTCVST	
0	0	0	2	DPAFSQCIYAAFQCDMQ	
1	0	2	20	DPAFSQCVYAAFFCREI	
2	0	11	55	DPAFSQCVYAAVVCEVQ	
1	0	2	7	DPAFSQCVYAAWHCESL	
0	0	1	10	DPAFSRCVYAAFTCQTF	
0	1	3	31	DPAFSRCVYAAVACEDH	
0	0	3	19	DPAFSTCIYAAVMCMDQ	
0	0	7	29	DPAFSTCVYAAIICNDT	

phage screen NGS read-out at Target Concentration 10	phage screen NGS read-out at Target Concentration 30	phage screen NGS read-out at Target Concentration 100	phage screen NGS read-out at Target Concentration 300	Sequence	other results
0	0	1	8	DPAFSTCVYAAVFCQNT	
0	0	0	2	DPAFYECVYAAVTCTQF	
0	0	3	8	DPAHEHCTAAASWCYIL	
0	0	0	2	DPAHEHCTSAAAWCMLL	
2	0	4	19	DPAHHHCQAAAAWCWVM	
3	1	1	1	DPAHILCEMAARNCLYN	
0	1	1	6	DPAHVHCQAAAQWCVLL	
				DPAHVRCTSAALWCNIF	Phage library screen NGS readout, Target Concentration 10: 0; Phage library screen NGS readout, Target Concentration 30: 0; Phage library screen NGS readout, Target Concentration 100: 3; Phage library screen NGS readout, Target Concentration 300: 4; Phage library screen NGS readout, Target Concentration 1000 [1]: 5; Phage library screen NGS readout, Target Concentration 1000 [2]: 7; Phage library screen NGS readout, BLANK (column 1 of 5): 0; Phage library screen NGS readout, BLANK (column 2 of 5): 0; Phage library screen NGS readout, BLANK (column 3 of 5): 0; Phage library screen NGS readout, BLANK (column 4 of 5): 0; Phage library screen NGS readout, BLANK (column 5 of 5): 0
1	0	9	80	DPAITHCTAAAMWCHLL	
1	2	4	20	DPALQHCAAAASWCWLM	
				DPALQSCLSAAVYCTVS	Phage library screen NGS readout, Target Concentration 10: 0; Phage library screen NGS readout, Target Concentration 30: 0; Phage library screen NGS readout, Target Concentration 100: 6; Phage library screen NGS readout, Target Concentration 300: 10; Phage library screen NGS readout, Target Concentration 1000 [1]: 9; Phage library screen NGS readout, Target Concentration 1000 [2]: 10; Phage library screen NGS readout, BLANK (column 1 of 5): 0; Phage library screen NGS readout, BLANK (column 2 of 5): 0; Phage library screen NGS readout, BLANK (column 3 of 5): 0; Phage library screen NGS readout, BLANK (column 4 of 5): 0; Phage library screen NGS readout, BLANK (column 5 of 5): 0
				DPALRTCLSAAVFCAVA	Phage library screen NGS readout, Target Concentration 10: 0; Phage library screen NGS readout, Target Concentration 30: 6; Phage library screen NGS readout, Target Concentration 100: 10; Phage library screen NGS readout, Target Concentration 300: 18; Phage library screen NGS readout, Target Concentration 1000 [1]: 15; Phage library screen NGS readout, Target Concentration 1000 [2]: 25; Phage library screen NGS readout, BLANK (column 1 of 5): 0; Phage library screen NGS readout, BLANK (column 2 of 5): 0; Phage library screen NGS readout, BLANK (column 3 of 5): 1; Phage library screen NGS readout, BLANK (column 4 of 5): 0; Phage library screen NGS readout, BLANK (column 5 of 5): 1
0	2	0	4	DPALSQCVYAAVFCQNL	
0	0	2	4	DPALSTCVYAAVMCQDV	
0	0	0	2	DPALTHCTAAAYWCYVM	
